Test results published in patent US20060286142A1.

Target: biotinylated alkaline phosphatase
Assay: SPR (Spreeta) refractive index response to 2 ug/ml b-AP on gold channels saturated with GBP-SA then GBP, after exposure to foulants (fibrinogen, human serum albumin, plasma, platelets)

relative response to b-AP (% of GBP-SA control channel): 80 to 100%
Substance: His6 tagged fusion protein streptavidin-GBP (from UniProt P22629 13-133)
